What was measured:
Type in all cases: in vitro ADME, hairless mice
[1] = Skin permeation with calcein sodium coating and dissolving solution in combination
Method: A transdermal drug administration apparatus having microneedles of FIG. 9 was used. 70 mg of calcein sodium as a drug was mixed with 930 μL of a 5% aqueous polymer (polyvinyl pyrrolidone, dextran) solution. The whole surface of microneedles was coated with 25 μL of the solution. The applied solution was dried at room temperature for 12 hours. Moreover, no polymer was added to a coating agent containing only water.
(§1) To measure the amount of permeation, the skin was ablated from the trunks of hairless mice and attached to vertical acrylic cells (2.54 cm^2) with the dermis facing a receptor layer. The cells were loaded in a thermostat set to 37° C. The transdermal drug administration apparatus having microneedles of the present invention was affixed to the stratum corneum. Sampling was conducted at a speed of 5.5 mL/hr. after 1 hour and 2 hours and subsequently at 2-hour intervals until the 6th hour. A phosphate-buffered saline (PBS) was used in the receptor layer. A drug content in the receptor solution obtained each time was measured with a fluorophotometer (excitation: 485, fluorescence: 538).
(§2) Animal type: hairless mice (n=3)
(§3) Receptor solution: 4 mL of PBS (Sampling volume: 200 μL/time)
(§4) Area: 2.54 cm^2 (however, the M.N substrate itself is 1 cm^2)
(§5) Dissolving solution: a saline was added dropwise from a dissolving solution reservoir.

[2] = Skin permeation with drug-coated microneedles and dissolving solution in combination (vertical acrylic cells); conditions: FIG. 12
Method: A transdermal drug administration apparatus having microneedles of FIG. 9 was used. 30% aqueous solution was prepared with 100 mg of BSA (bovine serum albumin) and […] of FITC-BSA (fluorescently labeled bovine serum albumin) as drugs and 350 μL of water and used as a mother liquid to prepare 10% and 20% aqueous solutions. The whole surface of microneedles was coated with each of the prepared 10 to 30% aqueous solutions in an amount of 30 μL/patch. The applied solution was dried at room temperature for 12 hours to prepare 3 kinds in total of coated microneedles (→3 mg/patch, 6 mg/patch, and 9 mg/patch) (FIG. 12).
The drug injection models used as controls are shown (FIG. 13), 15 μL of a 20% aqueous drug (FITC-BSA) solution was added to a dissolving solution without coating microneedles with the drug, and after coating with a 5% aqueous PVA203 solution in an amount of 30 μL/patch, the drug was added.
as §1, with “8th” for “6th”
as §2, §3, §4, §5
PVA203: polyvinyl alcohol (partially saponified, polymerization degree: 300, KURARAY CO., LTD.)

[3] = Skin permeation with drug coating-water-soluble polymer and dissolving solution in combination; conditions: FIG. 14; for skin permeability: 20 μL dissolving solution in combination
Method: A transdermal drug administration apparatus having microneedles of FIG. 9 was used. 400 mg of BSA (bovine serum albumin) and 400 mg of FITC-BSA (fluorescently labeled bovine serum albumin) as drugs were dissolved in 5 mL of water. Likewise, 800 mg of a polymer (PEO, PVA117) was dissolved in 5 mL of water. Both of the solutions were mixed in equal amounts to prepare a coating solution. The whole surface of microneedles was coated with 25 μL of the coating solution. The applied solution was dried with a drier for 30 minutes. Moreover, no polymer was added to a coating agent containing only water.
as §1, with “8th” for “6th”, “496,” for “485,”, “517).” for “538).”
as §2
Receptor solution: 4 mL of PBS (Sampling volume: 500 μL/time)
as §4, §5
PEO: polyethylene oxide (molecular weight: 900,000, concentration: 2.5%)
PVA117S: polyvinyl alcohol (completely saponified, KURARAY CO., LTD.)

| Molecule | permeability-promoting effects by dropwise addition of the dissolving solution ([1]; dextran used in the coating) | permeability-promoting effects by dropwise addition of the dissolving solution ([1]; polyvinyl pyrrolidone used in the coating) | permeability-promoting effects by dropwise addition of the dissolving solution ([1]; regardless of the presence or absence of the polymer in the coating, FIGS. 15-17) | effect of using the dissolving solution in combination ([2]; amount of drug coating 3 mg (of 3, 6 and 9 mg), dissolving solution fixed to 20 μL) | synergistic effect brought about by the dissolving solution ([2]; amount of drug coating 9 mg, dissolving solution fixed to 20 μL) | skin permeability ([2]; drug-coated microneedles, 20 μL dissolving solution (saline) used in combination) | skin permeability ([3]; only water, no polymer in coating composition) | skin permeability ([3]; polyethylene oxide (molecular weight 900,000) mixed into coating composition) | skin permeability-promoting effects brought about by the addition of the dissolving solution ([3]; poorly soluble polymer PVA117 mixed into coating composition) |
| --- | --- | --- | --- | --- | --- | --- | --- | --- | --- |
| O=C(O)CN(CC(=O)O)Cc1cc2c(cc1O)Oc1cc(O)c(CN(CC(=O)O)CC(=O)O)cc1C21OC(=O)c2ccccc21 [calcein sodium] | promoting effects were also observed | promoting effects were also observed | Permeability-promoting effects were observed |  |  |  |  |  |  |
| FITC-BSA: fluorescently labeled bovine serum albumin, used as model drug in the microneedle coating (mixed with BSA) |  |  |  | highest | no synergistic effect | increased | increased | increased | no skin permeability-promoting effects |
